From the supplement of paper PMC7877785
± gives the uncertainty stated by the source.

Experiment: self-splicing fitness, log relative to wild type (ln ratio); higher = more splicing; Tetrahymena group I intron in knt gene, E. coli kanamycin selection, DiMSum; sequences stand for … in CUCUCU…GGAGGGAAAAGUUAUCAGGCAUGCACCUGGUAGCUAGUCUUUAAACCAAUAGAUUGCAUCGGUUUAAAAGGCAAGACCGUCAAAUUGCGGGAAAGGGGUCAACAGCCGUUCAGUACCAAGUCUCAGGGGAAACUUUGAGAUGGCCUUGCAAAGGGUAUGGUAAUAAGCUGACGGACAUGGUCCUAACCACGCAGCCAAGUCCUAAGUCAACAGAUCUUCUGUUGAUAUGGAUGCAGUUCACAGACUAAAUGUCGGUCGGGGAAGAUGUAUUCUUCUCAUAAGAUAUAGUCGGACCUCUCCUUAAUGGGAGCUAGCGGAUGAAGUGAUGCAACACUGGAGCCGCUGGGAACUAAUUUGUAUGCGAAAGUAUAUUGAUUAGUUUUGGAGUACUCGUGGUCG
Outline: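 Colonies from six replicate transformations of E. coli BL21(DE3) were pooled and amplicon-sequenced on an Illumina HiSeq 2500. The library placed an intron with all eight P1ex-region nucleotides randomised inside the knt kanamycin-resistance gene on pET-22b(+), and cells grew overnight at 37°C or 30°C on LB agar with or without 25 μg/mL kanamycin (plus 100 μg/mL carbenicillin, 50 μM IPTG, 0.2% rhamnose). Fitness is the DiMSum error-weighted combination of wild-type-normalised replicate fold changes, kanamycin versus none.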

| Sequence | self-splicing fitness (ln) (30 °C) | self-splicing fitness (ln) (37 °C) |
| --- | --- | --- |
| CCCGAGCAAUAUUACGGGAU | -3.31 ± 0.23 | -2.08 ± 0.21 |
| UAGAAGCAAUAUUACGACGA | -0.144 ± 0.1 | -0.0918 ± 0.1 |
| AGCGAGCAAUAUUACGUCCA | -2.59 ± 0.15 | -1.1 ± 0.15 |
| UGACAGCAAUAUUACGAAGC | -3.56 ± 0.37 | -3.61 ± 0.39 |
| AGGAAGCAAUAUUACGACGU | 0.0515 ± 0.072 | 0.213 ± 0.076 |
| UUCAAGCAAUAUUACGCACC |  | -1.68 ± 0.49 |
| GCGCAGCAAUAUUACGGUAC | -1.22 ± 0.082 | 0.195 ± 0.095 |
| UCCAAGCAAUAUUACGUGAA | -0.666 ± 0.074 | 0.295 ± 0.1 |
| AUUAAGCAAUAUUACGAAUG | -2.82 ± 0.2 | -0.206 ± 0.2 |
| AAGCAGCAAUAUUACGUUGU | -3.89 ± 0.12 | -2.31 ± 0.11 |
| AUAGAGCAAUAUUACGCUGU | -0.963 ± 0.11 | 0.0295 ± 0.14 |
| UCUGAGCAAUAUUACGGUCU | -2.46 ± 0.21 | -2.96 ± 0.37 |
| GAACAGCAAUAUUACGUUGG | -2.51 ± 0.08 | -1.94 ± 0.1 |
| UCGUAGCAAUAUUACGAACA | -2.55 ± 0.28 | -1.82 ± 0.2 |
| UCCUAGCAAUAUUACGGAUU | -4.22 ± 0.23 | -2.36 ± 0.21 |
| UUGCAGCAAUAUUACGUGAG | -0.139 ± 0.078 | -0.302 ± 0.099 |
| ACACAGCAAUAUUACGUCCU | -0.17 ± 0.055 | 0.432 ± 0.075 |
| CUAUAGCAAUAUUACGGAGA | -2.82 ± 0.3 | -1.38 ± 0.33 |
| UUAUAGCAAUAUUACGUGCG | -1.06 ± 0.15 | -0.395 ± 0.17 |
| AGUAAGCAAUAUUACGCUAA | -2.36 ± 0.17 | -2.3 ± 0.19 |
| AACGAGCAAUAUUACGGCAG |  | -3.6 ± 0.36 |
| ACGGAGCAAUAUUACGUCAC | -3.48 ± 0.31 | -2.42 ± 0.45 |
| GGGAAGCAAUAUUACGAGAU | -2.81 ± 0.25 | -2.8 ± 0.38 |
| AAUAAGCAAUAUUACGGACG | -0.851 ± 0.15 | -0.397 ± 0.15 |
| GAACAGCAAUAUUACGAAAC | -0.693 ± 0.1 | -0.301 ± 0.12 |

| Sequence | self-splicing fitness (ln) (30 °C) | self-splicing fitness (ln) (37 °C) |
| --- | --- | --- |
| AUGCAGCAAUAUUACGGACG | -1.57 ± 0.12 | -0.811 ± 0.13 |
| GACUAGCAAUAUUACGGAUU | -0.975 ± 0.066 | -0.588 ± 0.092 |
| GACGAGCAAUAUUACGAUUG | -4.17 ± 0.27 | -1.09 ± 0.13 |
| CCAAAGCAAUAUUACGUCCG | -0.225 ± 0.11 | -0.354 ± 0.14 |
| UACUAGCAAUAUUACGCCCA | -0.901 ± 0.21 | 0.802 ± 0.33 |
| GGCGAGCAAUAUUACGAUGG | -2.32 ± 0.24 |  |
| AGCCAGCAAUAUUACGACGA | -1.97 ± 0.1 | -1.76 ± 0.12 |
| AAUUAGCAAUAUUACGGAAC | -2.77 ± 0.13 | -2.18 ± 0.2 |
| CUUUAGCAAUAUUACGCGUC | -4.35 ± 0.3 | -2.85 ± 0.22 |
| AACAAGCAAUAUUACGUUAU | -3.49 ± 0.16 | -2.13 ± 0.12 |
| CACUAGCAAUAUUACGUCCU | -2.36 ± 0.13 | -1.24 ± 0.18 |
| UUCAAGCAAUAUUACGUUCA | -0.938 ± 0.077 | -0.12 ± 0.077 |
| UAUCAGCAAUAUUACGACCG | -0.12 ± 0.081 | 0.738 ± 0.11 |
| AACGAGCAAUAUUACGUCGG | -3.25 ± 0.26 | -0.594 ± 0.15 |
| UAUAAGCAAUAUUACGCCGA | -1.53 ± 0.14 | 0.235 ± 0.14 |
| CCCAAGCAAUAUUACGGACA | -3.25 ± 0.27 | -2.07 ± 0.14 |
| UCCAAGCAAUAUUACGAGGA | -2.7 ± 0.2 | -2.3 ± 0.23 |
| CUUUAGCAAUAUUACGCACG | -1.41 ± 0.21 | -0.277 ± 0.2 |
| UGCGAGCAAUAUUACGCUAG | -2.68 ± 0.45 |  |
| UUGAAGCAAUAUUACGUGUA | -1.7 ± 0.053 | -1.25 ± 0.074 |
| AACAAGCAAUAUUACGCUGG | -2.25 ± 0.081 | -1.04 ± 0.1 |
| GCUUAGCAAUAUUACGUACC | -0.204 ± 0.2 | 1.1 ± 0.21 |
| ACGUAGCAAUAUUACGGCUC | -1.2 ± 0.12 | -0.844 ± 0.15 |
| UGGCAGCAAUAUUACGGUAU | -3.72 ± 0.24 | -1.73 ± 0.17 |
| GUAUAGCAAUAUUACGAAAG | -3.15 ± 0.43 | -2.06 ± 0.35 |

| Sequence | self-splicing fitness (ln) (30 °C) | self-splicing fitness (ln) (37 °C) |
| --- | --- | --- |
| GAUGAGCAAUAUUACGGGGU | -3.36 ± 0.23 | -2.92 ± 0.32 |
| ACCAAGCAAUAUUACGCUGU | -1.61 ± 0.067 | -0.313 ± 0.074 |
| CUAAAGCAAUAUUACGGCGC | -2.54 ± 0.21 | -2.38 ± 0.45 |
| ACCAAGCAAUAUUACGGAGU | -3.6 ± 0.098 | -2.25 ± 0.12 |
| AAGUAGCAAUAUUACGACAC | -0.538 ± 0.19 | -0.726 ± 0.19 |
| GCAUAGCAAUAUUACGAUGU | -2.82 ± 0.13 | -2.31 ± 0.17 |
| GAGAAGCAAUAUUACGUACU | 0.0719 ± 0.08 | 0.0321 ± 0.11 |
| CGUAAGCAAUAUUACGCGGU | -1.99 ± 0.23 | -1.69 ± 0.38 |
| AUCCAGCAAUAUUACGGGCU | -3.07 ± 0.16 | -2.64 ± 0.17 |
| AAUCAGCAAUAUUACGCGCG | 0.0814 ± 0.079 | -0.098 ± 0.1 |
| GCGAAGCAAUAUUACGCCCG | -2.36 ± 0.31 | -1.68 ± 0.48 |
| CUCUAGCAAUAUUACGUAGG | -2.83 ± 0.18 | -1.9 ± 0.22 |
| CUUCAGCAAUAUUACGAUGU | -3.67 ± 0.21 | -2.07 ± 0.2 |
| CAGUAGCAAUAUUACGCCGU | -2.93 ± 0.36 | -0.37 ± 0.19 |
| CUCAAGCAAUAUUACGUGCG | -2.81 ± 0.14 | -0.8 ± 0.12 |
| UCGGAGCAAUAUUACGUUUC |  | -2.02 ± 0.43 |
| CUUCAGCAAUAUUACGGCGG | -2.02 ± 0.27 | -1.25 ± 0.18 |
| CUUAAGCAAUAUUACGGUAU | -4.7 ± 0.34 | -2.35 ± 0.22 |
| CUGUAGCAAUAUUACGGUCU | -3.53 ± 0.14 | -2.96 ± 0.21 |
| AGUUAGCAAUAUUACGGACC | -0.357 ± 0.11 | -0.279 ± 0.16 |
| GAGUAGCAAUAUUACGGAGC | -2.75 ± 0.23 | -1.8 ± 0.27 |
| GGCAAGCAAUAUUACGCCCA | -1.95 ± 0.15 | -0.268 ± 0.12 |
| UAGUAGCAAUAUUACGUGCU | -1.79 ± 0.11 | -0.826 ± 0.12 |
| CCGAAGCAAUAUUACGAACA |  | -2.58 ± 0.41 |
| CAGCAGCAAUAUUACGGGAC | -3.71 ± 0.22 | -2.46 ± 0.27 |

| Sequence | self-splicing fitness (ln) (30 °C) | self-splicing fitness (ln) (37 °C) |
| --- | --- | --- |
| CUGGAGCAAUAUUACGACGG | -3.79 ± 0.38 | -3.09 ± 0.43 |
| GACAAGCAAUAUUACGCUAU | -1.96 ± 0.094 | -1.17 ± 0.1 |
| UUGCAGCAAUAUUACGAUUU | -2.64 ± 0.14 | -1.22 ± 0.13 |
| GACAAGCAAUAUUACGACAG | -4.68 ± 0.22 | -2.63 ± 0.14 |
| GAGUAGCAAUAUUACGAGCC | -1.67 ± 0.2 | -1.26 ± 0.19 |
| AUUCAGCAAUAUUACGGUCG | -0.857 ± 0.085 | -0.679 ± 0.14 |
| GGGCAGCAAUAUUACGACGG | -3.78 ± 0.35 | -1.4 ± 0.27 |
| AGAUAGCAAUAUUACGGUCG | -0.105 ± 0.12 | -0.324 ± 0.15 |
| UCUAAGCAAUAUUACGUUCG | -1.38 ± 0.12 | -1.12 ± 0.12 |
| AUCAAGCAAUAUUACGGAAU | -1.94 ± 0.071 | -1.03 ± 0.083 |
| GAUUAGCAAUAUUACGAACU | -0.696 ± 0.15 | -0.559 ± 0.19 |
| ACCGAGCAAUAUUACGUCGG | -4.23 ± 0.39 | -3.13 ± 0.35 |
| AUCGAGCAAUAUUACGCCAU | -2.34 ± 0.31 | -2.79 ± 0.3 |
| UUACAGCAAUAUUACGGUCG | 0.503 ± 0.065 | 0.571 ± 0.087 |
| AUAGAGCAAUAUUACGGAUC | -2.96 ± 0.3 | -2.14 ± 0.31 |
| CGCAAGCAAUAUUACGUUGC | -3.41 ± 0.17 | -3.62 ± 0.29 |
| AGUAAGCAAUAUUACGUUUC | -3.78 ± 0.23 | -1.37 ± 0.21 |
| CCCGAGCAAUAUUACGAUCA | -2.79 ± 0.28 | -2.98 ± 0.33 |
| GAGAAGCAAUAUUACGGUAG | -3.75 ± 0.29 | -2.68 ± 0.24 |
| GGCAAGCAAUAUUACGAUGC | -2.36 ± 0.11 | -1.02 ± 0.12 |
| CUGCAGCAAUAUUACGCUGC | -2.88 ± 0.29 |  |
| GUCGAGCAAUAUUACGGUGG | -3.54 ± 0.27 | -2.24 ± 0.22 |
